Data: patent publication US20220169693A1, “Screening Assays, Modulators and Modulation of Intracellular Signalling Mediated by Immunoglobulin Superfamily Cell Adhesion Molecules” (Monash University, priority 2018, published 2022)

Experiments:
[1] = molecular target: T1, full length murine ALCAM1-583 (Mus musculus, UniProt Q61490); test: Ang II-induced p65/PCNA expression in AT1R-CHO cells transfected with full length murine ALCAM (qRT-PCR); assay type: cell-based; conditions: Ang II 1 μM 2 h, co-transfection of the construct, vs pCIneo (FIG. 3B, 5B)
T1 construct: host or cells: AT1R-CHO (CHO stably transfected with human AT1R-Rluc8), transient transfection; untagged clone in pCMV6
T1 sequence (Q61490 28-583): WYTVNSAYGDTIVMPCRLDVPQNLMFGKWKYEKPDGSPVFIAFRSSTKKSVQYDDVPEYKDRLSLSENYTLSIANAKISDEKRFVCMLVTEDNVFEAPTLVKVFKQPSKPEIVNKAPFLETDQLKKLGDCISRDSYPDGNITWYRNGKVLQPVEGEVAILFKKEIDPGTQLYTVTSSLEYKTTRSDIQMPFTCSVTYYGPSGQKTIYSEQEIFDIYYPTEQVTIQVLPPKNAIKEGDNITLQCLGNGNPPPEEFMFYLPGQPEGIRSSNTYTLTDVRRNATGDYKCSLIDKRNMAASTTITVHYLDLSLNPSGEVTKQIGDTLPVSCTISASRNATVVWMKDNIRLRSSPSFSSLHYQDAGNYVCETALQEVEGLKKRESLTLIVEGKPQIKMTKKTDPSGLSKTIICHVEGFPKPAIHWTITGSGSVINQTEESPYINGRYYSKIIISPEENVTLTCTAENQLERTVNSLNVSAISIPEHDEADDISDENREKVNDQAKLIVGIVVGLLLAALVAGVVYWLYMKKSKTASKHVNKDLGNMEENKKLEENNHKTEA
Description: (§1) Adult retinal pigment epithelial (ARPE) cells were cultured in Dulbecco's modified Eagle's medium (DMEM)/F12 endothelial cell growth supplement (ECGS) supplemented media. Chinese Hamster Ovary (CHO) cells were cultured using F12 media (10% FCS with 2 mM glutamine). Human microvascular endothelial cells (HMEC) were cultured in MCDB 131 medium (10% FCS with 10 mM glutamine, EGF and hydrocortisone).
(§2) 100 ng of AT1R-Rluc8 construct was transfected into CHO cells using Lipofectamine 2000 (Thermo). Stable transfectants were selected using G418. AT1R-CHO were then transiently transfected with the IgSF CAM and/or RAGE constructs using Lipofectamine 2000 (Invitrogen) and incubated for 16h.
Oligonucleotides were designed and ordered to generate the ALCAM, BCAM and MCAM intracellular (cytosolic) domains. These included a 5′ NheI site, Kozak sequence and initiating Methionine and then DNA sequences corresponding to ALCAM residues 552-583, BCAM residues 569-628 and MCAM residues 584-637 respectively (Note that as residue 551 of ALCAM is Methionine, the cytosolic tail of ALCAM effectively corresponded to residues 551-583). The pCIneo parental vector was digested with NheI and NotI restriction enzymes, and the DNA of the fragments of the ALCAM, BCAM and MCAM tails/cytosolic domains were ligated into the digested plasmid. After transformation and recovery, colonies were screened and individual clones sequenced. The sequence of the insert was confirmed by DNA sequencing (Micromon, Monash University). A full-length clone of Mouse ALCAM (BC027280) was purchased from Origene. The untagged clone was supplied in the vector pCMV6. […]
(§3) After 2 hours of exposure to Ang II (1 μM) cells were placed in Trizol, mRNA extracted and cDNA synthesized. Changes in the gene expression of the NFκB subunit, p65 (RelA) or NFκB-activated target genes (e.g ICAM-1) were estimated by quantitative real-time RT-PCR, performed using the TaqMan system based on real-time detection of accumulated fluorescence (ABI Prism 7700, Perkin-Elmer Inc, PE Biosystems, Foster City, Calif., USA). […]

[2] = molecular target: T2, human ALCAM (ALCAM1-583, cytosolic tail ALCAM551-583) (Homo sapiens, UniProt Q13740); test: Ang II-induced p65/PCNA expression in AT1R-CHO cells transfected with human ALCAM (full length or cytosolic tail); assay type: cell-based; conditions: Ang II 1 μM, co-transfection (FIG. 3G, 1E)
T2 construct: expressed in transfected cells; host or cells: AT1R-CHO (CHO stably transfected with human AT1R-Rluc8), transient transfection
T2 sequence (Q13740 551-583): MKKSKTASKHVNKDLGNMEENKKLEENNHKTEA
Description: as §1, §2
(§4) Oligonucleotides were designed and ordered to generate the ALCAM, BCAM and MCAM intracellular (cytosolic) domains. These included a 5′ NheI site, Kozak sequence and initiating Methionine and then DNA sequences corresponding to ALCAM residues 552-583, BCAM residues 569-628 and MCAM residues 584-637 respectively (Note that as residue 551 of ALCAM is Methionine, the cytosolic tail of ALCAM effectively corresponded to residues 551-583). The pCIneo parental vector was digested with NheI and NotI restriction enzymes, and the DNA of the fragments of the ALCAM, BCAM and MCAM tails/cytosolic domains were ligated into the digested plasmid. After transformation and recovery, colonies were screened and individual clones sequenced. The sequence of the insert was confirmed by DNA sequencing (Micromon, Monash University). A full-length clone of Mouse ALCAM (BC027280) was purchased from Origene. The untagged clone was supplied in the vector pCMV6. Overlapping DNA sequences were ordered to generate the ALCAM559-580 fragment oligonucleotide. These included a 5′ NheI site, Kozak sequence and initiating Methionine and then DNA sequences corresponding to ALCAM residues 559-580. The pCIneo parental vector was digested with NheI and NotI restriction enzymes, and the ALCAM559-580 construct DNA was ligated into the digested plasmid. After transformation and recovery, colonies were screened and individual clones sequenced.
(§5) After 2 hours of exposure to Ang II (1 μM) cells were placed in Trizol, mRNA extracted and cDNA synthesized. Changes in the gene expression of the NFκB subunit, p65 (RelA) or NFκB-activated target genes (e.g ICAM-1) were estimated by quantitative real-time RT-PCR, performed using the TaqMan system based on real-time detection of accumulated fluorescence (ABI Prism 7700, Perkin-Elmer Inc, PE Biosystems, Foster City, Calif., USA). Gene expression was normalized to 18S mRNA and reported as fold change compared to the level of expression in untreated control mice/cells, which were given an arbitrary value of 1.

AT1R-CHO cells = test: p65 expression in AT1R-CHO cells expressing the truncated construct alone; assay type: cell-based, Chinese Hamster; conditions: for induction of p65 expression by Ang II when the construct alone is expressed: AT1R-CHO cells, Ang II 1 μM (FIG. 3A, 5A, 5B); for induction of p65 expression following exposure to S100A8/9 when the construct alone is expressed: S100A8/9 1 μM (FIG. 4A)
Description: as §1, §2, §4, §5

[3] = molecular target: T3, cytosolic tail of ALCAM, ALCAM551-583 (Homo sapiens, UniProt Q13740); test: Ang II-induced ICAM-1 expression in ARPE cells transfected with cytosolic tail of ALCAM; assay type: cell-based; conditions: Ang II 1 μM
T3 construct: corresponds to residues 551-583 of ALCAM, with initial Methionine already present; expressed in transfected cells; host or cells: human ARPE (adult retinal pigment epithelial) cells; insert in pCIneo
T3 sequence (Q13740 551-583 limits assumed): T2 sequence (Q13740 551-583)
Description: as §1
(§6) Oligonucleotides were designed and ordered to generate the ALCAM, BCAM and MCAM intracellular (cytosolic) domains. These included a 5′ NheI site, Kozak sequence and initiating Methionine and then DNA sequences corresponding to ALCAM residues 552-583, BCAM residues 569-628 and MCAM residues 584-637 respectively (Note that as residue 551 of ALCAM is Methionine, the cytosolic tail of ALCAM effectively corresponded to residues 551-583). […]
as §3

[4] = molecular target: T1, full length murine ALCAM1-583; test: S100A8/A9-induced PCNA expression in CHO cells transfected with full length murine ALCAM; assay type: cell-based; conditions: S100A8/A9 1 μM 2 h, co-transfection (FIG. 4A)
Description: as §1
as §6, with “551-583). The pCIneo parental vector was digested with NheI and NotI restriction enzymes, and the DNA of the fragments of the ALCAM, BCAM and MCAM tails/cytosolic domains were ligated into the digested plasmid.” for “551-583).”
as §3, with “After 2 hours of exposure to Ang II (1 μM) cells were placed in Trizol, mRNA extracted and cDNA synthesized.” left out

[5] = molecular target: T4, cytosolic tail of MCAM, MCAM584-637 (Homo sapiens, UniProt P43121); test: Ang II-induced ICAM-1 expression in ARPE cells transfected with cytosolic tail of MCAM; assay type: cell-based; set-up: corresponds to residues 584-637 of MCAM plus an initiating Methionine; initiating Methionine (N); expressed in transfected cells; host or cells: human ARPE (adult retinal pigment epithelial) cells; insert in pCIneo; conditions: Ang II 1 μM, co-transfection (FIG. 2B)
T4 sequence (P43121 with tags, fused parts or gaps): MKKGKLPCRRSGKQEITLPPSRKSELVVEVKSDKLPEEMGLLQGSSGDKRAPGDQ
Description: as §1, §6, §3

[6] = molecular target: T5, cytosolic tail of BCAM, BCAM569-628 (Homo sapiens, UniProt P50895); test: Ang II-induced ICAM-1 expression in ARPE cells transfected with cytosolic tail of BCAM; assay type: cell-based; set-up: corresponds to residues 569-628 of BCAM plus an initiating Methionine; initiating Methionine (N); expressed in transfected cells; host or cells: human ARPE (adult retinal pigment epithelial) cells; insert in pCIneo; conditions: Ang II 1 μM, treatment with oligopeptide (FIG. 2C)
T5 sequence (P50895 with tags, fused parts or gaps): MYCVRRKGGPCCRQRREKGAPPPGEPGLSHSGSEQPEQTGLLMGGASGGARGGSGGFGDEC
Description: as §1, §6, §3

[7] = molecular target: T6, cytosolic tail of human EpCAM, EpCAM289-314 (Homo sapiens, UniProt P16422); test: Ang II-induced p65 expression in AT1R-CHO cells transfected with cytosolic tail of EpCAM; assay type: cell-based; conditions: Ang II 1 μM, co-transfection (FIG. 3J)
T6 construct: corresponds to residues 289-314 of EpCAM plus an initiating Methionine; initiating Methionine (N); expressed in transfected cells; host or cells: AT1R-CHO (CHO stably transfected with human AT1R-Rluc8), transient transfection
T6 sequence (P16422 with tags, fused parts or gaps limits assumed): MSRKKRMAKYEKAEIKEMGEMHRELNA
Description: as §1, §2, §5

[8] = molecular target: T7, cytosolic tail of human CADM4, CADM4346-388 (Homo sapiens, UniProt Q8NFZ8); test: Ang II-induced p65 expression in AT1R-CHO cells transfected with cytosolic tail of CADM4; assay type: cell-based; conditions: Ang II 1 μM, co-transfection (FIG. 3K)
T7 construct: initiating Methionine (N); expressed in transfected cells; host or cells: AT1R-CHO (CHO stably transfected with human AT1R-Rluc8), transient transfection
T7 sequence (Q8NFZ8 with tags, fused parts or gaps): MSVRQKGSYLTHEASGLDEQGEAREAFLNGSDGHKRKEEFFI
Description: as §1, §2, §5

[9] = molecular target: T5, cytosolic tail of BCAM, BCAM569-628; test: Ang II-induced p65 expression in AT1R-CHO cells transfected with cytosolic tail of BCAM; assay type: cell-based; set-up: corresponds to residues 569-628 of BCAM plus an initiating Methionine; initiating Methionine (N); expressed in transfected cells; host or cells: AT1R-CHO (CHO stably transfected with human AT1R-Rluc8); insert in pCIneo; conditions: Ang II 1 μM, co-transfection (FIG. 3H)
Description: as §1, §2
(§7) Oligonucleotides were designed and ordered to generate the ALCAM, BCAM and MCAM intracellular (cytosolic) domains. […]
as §3

[10] = molecular target: T4, cytosolic tail of MCAM, MCAM584-637; test: Ang II-induced p65 expression in AT1R-CHO cells transfected with cytosolic tail of MCAM; assay type: cell-based; set-up: corresponds to residues 584-637 of MCAM plus an initiating Methionine; initiating Methionine (N); expressed in transfected cells; host or cells: AT1R-CHO (CHO stably transfected with human AT1R-Rluc8); insert in pCIneo; conditions: Ang II 1 μM, co-transfection (FIG. 3I)
Description: as §1, §2, §7, §3

## MGEERKAPENQEEEEERAELNQ [RAGE370-390]
[1]
  induction of p65-NFκB expression by Ang II via AT1R-dependent transactivation of full length murine ALCAM1-583: inhibited
[2]
  induction of p65-NFκB expression by Ang II via transactivation of the cytosolic tail of human ALCAM, ALCAM551-583: inhibited
AT1R-CHO cells
  induction of p65 expression by Ang II when the construct alone is expressed: no induction of p65 expression is observed
  induction of p65 expression following exposure to S100A8/9 when the construct alone is expressed: no induction of p65 expression is observed
[3]; co-transfection (FIG. 2A)
  NFKB-dependent induction of ICAM-1 gene expression by Ang II via ALCAM551-583: inhibited
[4]
  ligand-dependent signalling (PCNA expression) via murine ALCAM activated by S100A8/A9: inhibited
[5]
  NFKB-dependent induction of ICAM-1 gene expression by Ang II via MCAM584-637: inhibited

## MLWQRRQRRGEERKAPENQEEEEERAELNQAEEPEAGESSTGGP (Synthetic peptide - Truncated amino acid sequence of human RAGE protein corresponding to residues 362 to 404 of human RAGE protein with a mutation of Serine 391 to Alanine plus an initiating methionine residue) [S391A-RAGE362-404, entire cytosolic tail of RAGE with serine391 mutated to alanine]
[3]; treatment with oligopeptide (FIG. 2C)
  proinflammatory signalling (ICAM-1) induced by Ang II mediated by the cytosolic tail of ALCAM: inhibited
[6]
  NFKB-dependent induction of ICAM-1 gene expression by Ang II via BCAM569-628: inhibited

## QEEEEERAELNQ (Synthetic peptide - Truncated amino acid sequence corresponding to residues 379 to 390 of human RAGE protein) [RAGE379-390]
[2]
  induction of p65-NFκB expression by Ang II via transactivation of the cytosolic tail of human ALCAM, ALCAM551-583: prevents induction
[7]
  induction of p65-NFκB expression by Ang II via transactivation of EpCAM289-314: prevents induction
[8]
  induction of p65-NFκB expression by Ang II via transactivation of CADM4346-388: prevents induction
AT1R-CHO cells
  induction of p65 expression by Ang II when the construct alone is expressed: no induction of p65 expression is observed
  induction of p65 expression following exposure to S100A8/9 when the construct alone is expressed: no induction of p65 expression is observed
[9]
  induction of p65-NFκB expression by Ang II via transactivation of BCAM569-628: prevents induction
[10]
  induction of p65-NFκB expression by Ang II via transactivation of MCAM584-637: prevents induction
